Legend:
[1] = biological target: active AKT1 (purified, Upstate Biotechnology) (UniProt P31749)
[2] = biological target: active AKT1 mutant with a deletion in the PH domain (UniProt P31749)
[3] = biological target: active AKT1 mutant with a Ser473Asp mutation (UniProt P31749)
[4] = test system: T1, control peptide (adjacent overlapping PKAc peptide)
T1 sequence: GFAKRVKGRTWTL

[5] = test system: T2, ZaTa peptide (PKAc fragment flanking Thr-197)
T2 sequence: AKRVKGRTWTLCGTPEY

[6] = test system: full-length, active PKAc (purified)

Sequence of active AKT1 (purified, Upstate Biotechnology) (P31749 whole entry, looked up, the tested form may be a part): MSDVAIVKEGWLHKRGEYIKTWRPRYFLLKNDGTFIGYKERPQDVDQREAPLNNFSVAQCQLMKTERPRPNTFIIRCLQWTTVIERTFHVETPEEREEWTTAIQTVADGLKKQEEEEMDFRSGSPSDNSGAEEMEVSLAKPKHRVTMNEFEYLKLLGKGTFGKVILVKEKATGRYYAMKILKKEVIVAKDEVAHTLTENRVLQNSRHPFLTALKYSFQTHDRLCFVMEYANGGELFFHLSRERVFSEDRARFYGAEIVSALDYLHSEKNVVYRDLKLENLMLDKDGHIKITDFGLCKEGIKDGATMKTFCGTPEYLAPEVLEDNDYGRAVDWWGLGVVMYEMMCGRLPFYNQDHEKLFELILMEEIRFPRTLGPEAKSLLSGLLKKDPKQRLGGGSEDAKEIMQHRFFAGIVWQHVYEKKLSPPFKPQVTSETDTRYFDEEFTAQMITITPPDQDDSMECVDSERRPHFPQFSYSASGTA
Sequence of active AKT1 mutant with a deletion in the PH domain (P31749 whole entry, looked up, stated change not applied, the tested form may be a part): as the sequence (P31749 whole entry, looked up, the tested form may be a part) above
Sequence of active AKT1 mutant with a Ser473Asp mutation (P31749 whole entry S473D): as the sequence (P31749 whole entry, looked up, the tested form may be a part) above, with S473D counted along it

Substance: active PKAc purified from bovine tissue
- AKT kinase activity in vitro [1]: the same inhibitory effect was observed with active PKAc purified from bovine tissue

Substance: human PKAc expressed in Sf9 cells
- AKT kinase activity in vitro [1]: the same inhibitory effect was observed ... with human PKAc expressed in Sf9 cells

Substance: full-length, active PKAc (purified)
- AKT kinase activity in vitro (Ser-9 GSK-3 GST fusion protein as substrate) [1]: the kinetic activity of AKT was dramatically reduced
- AKT kinase activity in vitro [2]: The decrease in the catalytic activity of AKT by PKAc was also observed with two mutants and active forms of AKT1, one with a deletion in the PH domain
- AKT kinase activity in vitro [3]: The decrease in the catalytic activity of AKT by PKAc was also observed with two mutants and active forms of AKT1 ... the other one with a Ser473Asp mutation

Substance: active AKT1 (purified, Upstate Biotechnology)
- AKT1 in vitro catalytic activity (32P incorporation into Ser-21 GSK-3 substrate peptide) [4]: the adjacent overlapping peptide was not able to inhibit AKT1
- IC-50 of AKT1 catalytic activity (32P incorporation, CPM) [5]: IC-50 of the ZaTa peptide was within a nanomolar range in these assays
- IC-50 of AKT1 in vitro catalytic activity (32P incorporation into Ser-21 GSK-3 substrate peptide) [5]: IC-50 ˜0.1 µM
- phosphorylation of Ser-9 GSK-3 GST substrate in the AKT1 kinase assay (western blot) [5]: The phosphorylation level of Ser-9 GSK-3 GST substrate was significantly reduced after adding the ZaTa peptide to the AKT1 kinase assay
- phosphorylation of ZaTa by AKT (control kinase reactions with peptide and AKT only) [5]: ZaTa peptide itself was not a substrate for AKT
- PKA kinase activity in vitro (phosphorylation of DARPP-32 at Thr-34) [6]: addition of the active AKT to the PKA kinase assay increased the catalytic activity of PKAc
- phosphorylation level of PKAc at Thr-197 in vitro [6]: the increase in the PKAc catalytic activity was accompanied by an increase in the phosphorylation level of PKAc at Thr-197
